This note sets out measurements from patent publication US20140328753A1 (UNIVERSITE BORDEAUX SEGALEN, published 2014).

For one experiment, the target named is T1, biotinylated BSA (bovine, UniProt P02769 25-607, biotinylated).
T1 construct: Control protein in the direct TR-FRET assay, at 50 ug/mL; also called biotinylated control protein; bovine serum albumin
The experiment is described as follows: direct TR-FRET, scFv coated. How it is done: FIG. 4. Direct TR-FRET binding assays between scFvs and atheromatous tissue extracts. Direct TR-FRET principle is schematized at the top. The donor fluorophore europium cryptate (Eu)K conjugated to anti-c-myc mAb was able to recognize c-myc tag expressed by scFvs. The acceptor fluorophore XL665 conjugated to streptavidin bound biotinylated protein extract. When scFvs and target proteins bound, a FRET signal was recorded. […] Specific TR-FRET signal was measured as a percentage DeltaF (percent DeltaF). The time course of the detection of the complex formation was performed after 6 hours (▪), 16 hours ( ), 24 hours ( ) and 40 hours (□) of incubation at 4° C. Ten microliter of scFv were coated on the plate at concentrations between 3 and 10 μg/mL according to the clone. The signals were measured in the presence of 4 nmol/L of mAb-(Eu)K, 4 nmol/L of streptavidin-XL665, and 30 μg/mL of biotinylated atheromatous protein extract or 50 μg/mL of biotinylated BSA (data not shown). Histobar values represent the average of at least three independent experiments±SD performed from the same purified scFv production.
Binding assays between scFvs and atheromatous protein extracts were assessed by direct TR-FRET. Black Fluotrac 600 microplate (Greiner) was coated with 10 μL of scFv (final concentration comprised between 3 and 10 μg/mL according to the clone) in 0.1 mol/L NaHCO₃, pH 8.6 for 16 hours at 4° C. Subsequently, plates were blocked for 3 hours at 4° C. using 1% BSA (w/v) in PBS solution. Following washing in PBS, 30 μg/mL of biotinylated atheromatous protein extract in 1% BSA/PBS was incubated for 16 hours at 4° C. After washing in PBS, 50 μL of reaction buffer (100 mmol/L Phosphate buffer, pH 7; 400 mmol/L KF buffer; 0.1% BSA), 4 nmol/L of anti c-myc-(Eu)K (Cisbio Bioassays, Codolet, France) and 4 nmol/L of streptavidin-XL665 (Cisbio Bioassays) were incubated in a final volume of 100 μL. FRET signal emission was measured and monitored with an Infinite® F500 reader (Tecan, Lyon, France) on a 40-hour time course. The percent DeltaF values reported the intensity of the direct binding between scFvs and protein extract.
On the technique in general: Time-resolved FRET reads energy transfer from a long-lived donor to a nearby acceptor.

For experiment [1], the target named is human recombinant carbonic anhydrase II (human, UniProt P00918 1-260). The experiment is described as follows: ELISA, CA-II coated at 10 µg/mL, scFv at 10 µg/mL. The procedure: Ninety-six well ELISA microtiter plates (Greiner) were coated overnight, at 4° C., with 100 µL of human recombinant carbonic anhydrase II (Sigma-Aldrich, St louis, USA) at a final concentration of 10 μg/mL, or bovine serum albumin at 50 μg/mL in carbonate buffer (NaHCO3/Na2CO3, 50 mmol/L, pH 9.6). All further reactions were carried out at room temperature. Following three washing steps with PBS-Tween 20 (0.5% Tween 20), 100 μL of purified K3.1 scFv at 10 μg/mL were added to each well. After a 2-h incubation and five washing steps, bound scFv was labeled with a mix of HRP-conjugated anti c-myc (diluted 1/1000, Miltenyi Biotech) and anti 6His (diluted 1/500, Roche Diagnostics) mAbs. After 1-h incubation and washing steps, color was developed with 100 μL of 3,3′,5,5′-Tetramethylbenzidine (TMB) liquid substrate system for ELISA (Sigma) and the absorbance was read at 450 nm with an Infinite® F500 reader (Tecan, Lyon, France).
Background: ELISA stands for enzyme-linked immunosorbent assay.

For experiment [2], the target named is T2, rabbit cytosolic carbonic anhydrase isoenzyme II (CA-II) (rabbit, UniProt P00919 2-260).
T2 construct: Pulled down from the lysate of rabbit atherosclerotic aorta; also called CA-II protein; protein with an apparent molecular mass of ~29 kDa
The experiment is described as follows: immunoprecipitation from rabbit atherosclerotic lysate on nickel beads, SDS-PAGE, LC-MS/MS. How it is done:
Nickel-coated superparamagnetic beads (Ademtech, Pessac, France) were pre-washed three times with 500 μL of Binding Buffer (BB) (20 mmol/L Tris, pH 7; 500 mmol/L NaCl) and then incubated for 1 hour with 1 mg of rabbit atheromatous proteins solubilized in low stringent lysis buffer in order to get rid of nonspecific binding proteins. The supernatant free of nonspecific binding proteins was recovered and incubated with 10 μg of purified K3.1 scFv or of an irrelevant scFv for 16 hours at 4° C. under rotation. The next day, 20 μL of clean pre-washed superparamagnetic beads were added and incubated for a further 1 hour at 20° C. After three washings with 500 μL of BB, the immunoprecipitated complexes were eluted with 2×30 μL of elution buffer (20 mmol/L Tris-HCl, pH 7.5; 500 mmol/L NaCl; 100 mmol/L imidazole). The protein complexes were then separated using 10% SDS-PAGE under reducing conditions. The band was excised and submitted to trypsin digestion, followed by liquid chromatrography-tandem mass spectrometry analysis (LC-MS/MS).
To identify the molecule recognized by purified K3.1 scFv, immunoprecipitation experiments using nickel superparamagnetic beads were performed to retain 6H is-tagged scFvs complexed to antigens contained in the rabbit atherosclerotic protein lysate. […]

T1 sequence (P02769 25-607 limits assumed): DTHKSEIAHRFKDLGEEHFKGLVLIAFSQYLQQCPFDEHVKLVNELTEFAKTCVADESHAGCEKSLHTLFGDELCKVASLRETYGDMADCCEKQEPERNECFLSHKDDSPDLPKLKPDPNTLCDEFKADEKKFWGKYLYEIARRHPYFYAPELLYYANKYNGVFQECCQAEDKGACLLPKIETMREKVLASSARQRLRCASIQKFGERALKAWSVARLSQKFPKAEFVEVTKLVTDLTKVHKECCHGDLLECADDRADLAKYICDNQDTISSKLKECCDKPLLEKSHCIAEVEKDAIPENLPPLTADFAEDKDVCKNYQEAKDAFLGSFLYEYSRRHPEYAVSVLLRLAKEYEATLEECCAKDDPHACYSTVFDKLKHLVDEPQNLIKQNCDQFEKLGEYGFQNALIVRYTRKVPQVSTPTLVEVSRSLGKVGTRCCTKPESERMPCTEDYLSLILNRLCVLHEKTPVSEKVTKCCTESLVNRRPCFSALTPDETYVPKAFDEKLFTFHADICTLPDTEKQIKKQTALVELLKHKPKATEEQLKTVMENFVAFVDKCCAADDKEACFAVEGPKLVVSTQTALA

B1: H2.1 scFv antibody (scFv)
scFv: EVQLVESGGSLVKPGGSLRLSCAASGFTFSNYSMNWVRQAPGKGLEWISSISGSSRYIYYADFVKGRFTISRDNATNSLYLQMNSLRAEDTAVYYCVRGGVDSSGDNCFDLWGRGTLVTVSSGGGGSGGGGSGGGGSQSVLTQPASVSGSPGQSITISCAGTSSDVGGYNYVSWYQQHPGKAPKLMIYEDSKRPSGVSNRFSGSKSGNTASLTISGLQAEDEADYYCTSYGSGATLVFGGGTKLAV
notes: Soluble scFv with c-myc and 6His tags
Turning to B1, the binding result with biotinylated BSA was “no binding (tested: 50 µg/mL of biotinylated BSA)”.

B2: I8.1 scFv antibody (scFv)
scFv: EVQLVESGGSLVKPGGSLRLSCAASGFTFSNYSMNWVRQAPGKGLEWISSISGSSRYIYYADFVKGRFTISRDNATNSLYLQMNSLRAEDTAVYYCVRNSFYASWSKDYSMEIWGRGTLVTVSSGGGGSGGGGSGGGGSQSVLTQPASVSGSPGQSITISCAGTSSDVGGYNYVSWYQQHPGKAPKLMIYEDSKRPSGVSNRFSGSKSGNTASLTISGLQAEDEADYYCQSWASRINIFGGGTKLAV
notes: as for B1
On to B2, for which the binding result with biotinylated BSA is given as “no binding (tested: 50 µg/mL of biotinylated BSA)”.

B3: K3.1 scFv antibody (scFv)
scFv: EVQLVESGGSLVKPGGSLRLSCAASGFTFSNYSMNWVRQAPGKGLEWISSISGSSRYIYYADFVKGRFTISRDNATNSLYLQMNSLRAEDTAVYYCVRGEGLYSGSYNLHYWGRGTLVTVSSGGGGSGGGGSGGGGSQSVLTQPASVSGSPGQSITISCAGTSSDVGGYNYVSWYQQHPGKAPKLMIYEDSKRPSGVSNRFSGSKSGNTASLTISGLQAEDEADYFCGTPNTHALWVFGGGTKLAV
notes: Human scFv from a semi-synthetic library (13R4 framework), made soluble in E. coli HB2151 and purified on nickel; It carried c-myc and 6His tags in the assays
B3: the binding result with biotinylated BSA is “no binding (tested: 50 µg/mL of biotinylated BSA)”; in experiment [1], “binds”; in experiment [2], “binds”.

B4: C3.3 scFv antibody (scFv)
scFv: EVQLVESGGSLVKPGGSLRLSCAASGFTFSNYSMNWVRQAPGKGLEWISSISGSSRYIYYADFVKGRFTISRDNATNSLYLQMNSLRAEDTAVYYCVRGIDGGGGWNYFDHWGRGTLVTVSSGGGGSGGGGSGGGGSQSVLTQPASVSGSPGQSITISCAGTSSDVGGYNYVSWYQQHPGKAPKLMIYEDSKRPSGVSNRFSGSKSGNTASLTISGLQAEDEADYYCRQPSNSPPLNFGGGTKLAV
notes: as for B1
For B4, the binding result with biotinylated BSA was “no binding (tested: 50 µg/mL of biotinylated BSA)”.
